Laboratory results from the supplement of paper PMC9732359.
± gives the uncertainty stated by the source.

Assay: protein stability index of a GFP-peptide fusion (yeast GPS) (PSI 1-4); higher = more stable; sorted into four equal gates, so the index is relative within each strain
Procedure, shortened: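 For each peptide, the protein stability index sums the read frequency in every gate after multiplying it by the gate number. Read frequencies came from plasmids that were PCR-amplified from each gate and Illumina-sequenced, with reads assigned to strains by barcodes. The gates were four equal bins of GFP/Cherry fluorescence ratio applied to mid-log yeast in leucine-free medium carrying a pooled library of tiled 17-residue yeast protein peptides fused downstream of GFP on a Cherry-expressing plasmid.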

Row | Sequence | protein stability index (doa10∆) | protein stability index (pdr5∆) | protein stability index (san1∆) | protein stability index (ubr1∆)
1 | TMMTVEEKPDVTYSDVG [RPT1] | 2.58 ± 0.1 | 2.42 ± 0.068 | 1.83 ± 0.14 | 2.3 ± 0.055
2 | GATYRGKLVESEDSMNV [SMD3] | 3.17 ± 0.084 | 2.73 ± 0.053 | 3.01 ± 0.06 | 3.33 ± 0.055
3 | VVVSGKLRAARAKAMKF [RPS3] | – | – | – | 3.28 ± 0.29
4 | NTLNIDNTARVIFDASI [BRN1] | 2.14 ± 0.05 | 2.28 ± 0.039 | 2.23 ± 0.056 | 2.37 ± 0.032
5 | RKQIQLLKKIIFEKELM [SRB4] | 1.93 ± 0.051 | 2.14 ± 0.047 | 1.86 ± 0.071 | 2.03 ± 0.034
6 | KDGGDKPPSSAFNFSFN [YAR002W/NUP60] | 3.18 ± 0.066 | 3.22 ± 0.054 | 3.17 ± 0.052 | 3.29 ± 0.061
7 | GVSLLALWKEKKEKPRS [RPS23A] | 3.12 ± 0.089 | 2.29 ± 0.11 | 2.21 ± 0.1 | 2.94 ± 0.075
8 | EYSYVDSNMDSISSVVS [RPN4] | 2.84 ± 0.075 | 3.26 ± 0.066 | 2.68 ± 0.076 | 3.05 ± 0.043
9 | QAMGVFLTNYNVRMDTM [RPB2] | 3.54 ± 0.19 | 3.14 ± 0.16 | 3.63 ± 0.11 | 3.5 ± 0.14
10 | STRKTPNGEGSKTWETY [RPS20] | 3.19 ± 0.17 | 3.36 ± 0.16 | 3.07 ± 0.11 | 3.34 ± 0.082
11 | FNVPVVSKQLGNGLVDE [YAR002W/NUP60] | – | 3.66 ± 0.22 | 3.26 ± 0.14 | 2.99 ± 0.14
12 | PEYYSTARVMGGLKNGV [DIS3] | 3.15 ± 0.093 | 3.24 ± 0.1 | 3.23 ± 0.052 | 3.01 ± 0.082
13 | ENVKIINYLLTLAITTV [RPN2] | 2.95 ± 0.06 | 3.03 ± 0.057 | 2.56 ± 0.065 | 2.99 ± 0.055
14 | KREGRNELQEERLKVPI [POP6] | – | 3.37 ± 0.2 | – | –
15 | ASNEVIAKSRYWYFLQK [RPL20A] | 2.19 ± 0.054 | 2.66 ± 0.066 | 2.58 ± 0.063 | 2.72 ± 0.058
16 | GSESDDSEGSIKQTSDE [ECM29] | 3.32 ± 0.1 | 3.57 ± 0.083 | 3.32 ± 0.068 | 3.42 ± 0.062
17 | NYAMTRNILHNTVPQVT [SRB5] | 1.7 ± 0.055 | 2.15 ± 0.061 | 1.66 ± 0.08 | 1.74 ± 0.038
18 | NILPFLWGPHGLNSDAE [ECM29] | 2.86 ± 0.21 | 2.71 ± 0.16 | 2.54 ± 0.14 | 2.42 ± 0.2
19 | ANLLPARQFGYVILTTS [RPS22A] | 1.29 ± 0.053 | 1.35 ± 0.044 | 1.2 ± 0.094 | 1.11 ± 0.046
20 | GGESMEGPKKCIQVNCL [SNM1] | 1.92 ± 0.053 | 1.95 ± 0.054 | 2.23 ± 0.1 | 1.79 ± 0.054
21 | YAKEDAFSYPRMYEEAS [RPN2] | 2.66 ± 0.091 | 1.35 ± 0.082 | 1.27 ± 0.11 | 1.43 ± 0.058
22 | SRSSVCVKAIEALFQSR [YCG1] | 3.14 ± 0.064 | 2.92 ± 0.085 | 3.04 ± 0.077 | 2.97 ± 0.066
23 | SSKKSKRLDKVGKKKGG [LRP1] | 2 ± 0.08 | 1.17 ± 0.068 | 1.91 ± 0.12 | 1.43 ± 0.057
24 | NGNLEEEFAYVDPARRQ [MED6] | 3.62 ± 0.21 | 3.44 ± 0.12 | 3.71 ± 0.1 | 2.74 ± 0.085
25 | LVQLEPHLFVNGDLTVS [SSN2] | 1.77 ± 0.1 | 1.9 ± 0.069 | 1.53 ± 0.16 | 1.5 ± 0.16
26 | IPAWFLNRQNDITDGKD [RPS18A] | 2.91 ± 0.17 | 3.22 ± 0.15 | 2.76 ± 0.2 | 2.87 ± 0.09
27 | QKIRNSEGISEATREVF [ITC1] | 3.11 ± 0.2 | 3.47 ± 0.19 | 2.81 ± 0.15 | –
